How the values were obtained:
AncSZ = test: phosphorylation enrichment, bacterial display (enrichment ratio); higher = better substrate or ligand; peptides without Tyr show the background
EPHB1 = EPHB1 (UniProt P54762); test: as above
EPHB2 = EPHB2 (UniProt P29323); test: as above
FGFR1 = FGFR1 (UniProt P11362); test: as above
FGFR3 = FGFR3 (UniProt P22607); test: as above
Fer (mouse) = test: as above
Fes = Fes (UniProt P07332); test: as above
Fyn = Fyn (UniProt P06241); test: as above
Hck = Hck (UniProt P08631); test: as above
Jak2 = Jak2 (UniProt O60674); test: as above
MERTK = MERTK (UniProt Q12866); test: as above
c-Abl (mouse) = test: as above
c-Src = test: as above
Grb2 SH2 = Grb2 SH2 (UniProt P62993); test: SH2 binding enrichment of the phosphorylated peptide, bacterial display (enrichment ratio); higher = better substrate or ligand; peptides without Tyr show the background
SHP2-C SH2 = test: as above
c-Src SH2 = test: as above
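Wherever SH2 binding enrichment of the phosphorylated peptide, bacterial display is given: peptide library displayed on the E. coli surface as eCPX fusions, selected cells deep-sequenced, score is each peptide's frequency after selection divided by its frequency in the input.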
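Wherever phosphorylation enrichment, bacterial display is given: 11-residue human phosphosite peptides and single-mutation variants displayed on the E. coli surface, counted by deep sequencing, each peptide's frequency after selection divided by its frequency in the unselected input library; frequency after pTyr selection over input frequency; kinase dosed for 20-30% of maximal phosphorylation in three min.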

Chain of Jak2 (O60674 whole entry, looked up): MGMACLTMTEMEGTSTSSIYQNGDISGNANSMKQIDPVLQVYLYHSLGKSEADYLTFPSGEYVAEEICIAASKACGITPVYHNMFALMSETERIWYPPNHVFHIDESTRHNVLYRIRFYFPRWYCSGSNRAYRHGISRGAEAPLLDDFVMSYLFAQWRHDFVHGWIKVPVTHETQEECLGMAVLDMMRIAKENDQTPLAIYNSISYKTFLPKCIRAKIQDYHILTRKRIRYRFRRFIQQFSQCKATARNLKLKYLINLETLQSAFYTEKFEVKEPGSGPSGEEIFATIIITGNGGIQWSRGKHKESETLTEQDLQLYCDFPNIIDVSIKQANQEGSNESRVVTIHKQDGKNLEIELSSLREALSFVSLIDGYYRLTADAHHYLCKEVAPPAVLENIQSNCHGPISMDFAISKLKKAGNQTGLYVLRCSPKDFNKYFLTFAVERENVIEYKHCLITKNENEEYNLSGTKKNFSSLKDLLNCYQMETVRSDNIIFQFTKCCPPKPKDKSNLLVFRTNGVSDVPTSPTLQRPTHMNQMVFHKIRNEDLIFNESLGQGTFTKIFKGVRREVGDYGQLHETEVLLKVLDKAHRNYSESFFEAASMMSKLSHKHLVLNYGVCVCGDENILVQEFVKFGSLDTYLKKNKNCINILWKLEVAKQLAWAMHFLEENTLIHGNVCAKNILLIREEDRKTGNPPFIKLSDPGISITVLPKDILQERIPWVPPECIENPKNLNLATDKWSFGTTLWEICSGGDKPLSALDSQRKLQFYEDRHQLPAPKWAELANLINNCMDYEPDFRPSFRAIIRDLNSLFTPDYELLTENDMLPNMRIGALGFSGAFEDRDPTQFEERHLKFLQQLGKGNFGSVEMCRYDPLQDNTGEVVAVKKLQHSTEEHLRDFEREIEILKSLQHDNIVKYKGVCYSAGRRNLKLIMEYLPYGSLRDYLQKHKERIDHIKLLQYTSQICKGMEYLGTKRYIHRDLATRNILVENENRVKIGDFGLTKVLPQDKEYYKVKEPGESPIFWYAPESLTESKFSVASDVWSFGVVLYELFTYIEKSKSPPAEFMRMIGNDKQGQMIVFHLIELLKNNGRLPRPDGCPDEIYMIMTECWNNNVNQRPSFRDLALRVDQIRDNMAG
Chain of FGFR3 (P22607 whole entry, looked up): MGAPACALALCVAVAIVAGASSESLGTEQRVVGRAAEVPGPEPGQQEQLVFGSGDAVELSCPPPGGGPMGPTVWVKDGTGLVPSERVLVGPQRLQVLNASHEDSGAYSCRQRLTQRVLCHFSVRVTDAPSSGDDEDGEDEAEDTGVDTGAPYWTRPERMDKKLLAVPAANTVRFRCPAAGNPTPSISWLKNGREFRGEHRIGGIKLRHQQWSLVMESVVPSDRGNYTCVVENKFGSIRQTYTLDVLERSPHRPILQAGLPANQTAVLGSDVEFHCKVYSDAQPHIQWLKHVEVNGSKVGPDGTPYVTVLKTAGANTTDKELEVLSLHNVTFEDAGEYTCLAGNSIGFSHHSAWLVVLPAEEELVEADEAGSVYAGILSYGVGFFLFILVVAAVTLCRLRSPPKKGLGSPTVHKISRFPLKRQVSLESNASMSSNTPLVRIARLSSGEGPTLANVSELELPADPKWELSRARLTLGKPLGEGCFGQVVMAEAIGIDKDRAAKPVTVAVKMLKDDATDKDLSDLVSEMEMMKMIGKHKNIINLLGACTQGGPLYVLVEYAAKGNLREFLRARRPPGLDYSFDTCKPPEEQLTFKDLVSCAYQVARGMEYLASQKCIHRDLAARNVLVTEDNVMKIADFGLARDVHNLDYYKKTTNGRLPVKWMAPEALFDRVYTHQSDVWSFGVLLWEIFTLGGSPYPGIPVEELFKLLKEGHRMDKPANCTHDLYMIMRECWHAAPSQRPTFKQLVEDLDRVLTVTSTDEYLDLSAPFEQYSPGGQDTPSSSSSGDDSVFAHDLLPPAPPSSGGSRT
Chain of Hck (P08631 whole entry, looked up): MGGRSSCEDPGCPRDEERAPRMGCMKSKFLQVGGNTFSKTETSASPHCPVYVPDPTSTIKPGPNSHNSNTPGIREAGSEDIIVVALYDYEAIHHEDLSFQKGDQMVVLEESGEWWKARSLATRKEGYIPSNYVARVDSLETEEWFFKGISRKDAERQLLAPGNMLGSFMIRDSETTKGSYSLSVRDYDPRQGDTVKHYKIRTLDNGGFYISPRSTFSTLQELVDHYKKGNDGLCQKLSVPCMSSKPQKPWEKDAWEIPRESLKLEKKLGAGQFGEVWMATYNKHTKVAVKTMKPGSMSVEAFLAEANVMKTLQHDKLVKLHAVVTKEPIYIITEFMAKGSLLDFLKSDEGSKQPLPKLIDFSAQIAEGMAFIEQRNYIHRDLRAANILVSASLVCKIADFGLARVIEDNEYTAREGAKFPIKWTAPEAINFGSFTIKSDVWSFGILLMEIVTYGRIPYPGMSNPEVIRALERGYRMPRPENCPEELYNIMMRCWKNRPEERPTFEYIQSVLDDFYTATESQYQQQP
Chain of FGFR1 (P11362 whole entry, looked up): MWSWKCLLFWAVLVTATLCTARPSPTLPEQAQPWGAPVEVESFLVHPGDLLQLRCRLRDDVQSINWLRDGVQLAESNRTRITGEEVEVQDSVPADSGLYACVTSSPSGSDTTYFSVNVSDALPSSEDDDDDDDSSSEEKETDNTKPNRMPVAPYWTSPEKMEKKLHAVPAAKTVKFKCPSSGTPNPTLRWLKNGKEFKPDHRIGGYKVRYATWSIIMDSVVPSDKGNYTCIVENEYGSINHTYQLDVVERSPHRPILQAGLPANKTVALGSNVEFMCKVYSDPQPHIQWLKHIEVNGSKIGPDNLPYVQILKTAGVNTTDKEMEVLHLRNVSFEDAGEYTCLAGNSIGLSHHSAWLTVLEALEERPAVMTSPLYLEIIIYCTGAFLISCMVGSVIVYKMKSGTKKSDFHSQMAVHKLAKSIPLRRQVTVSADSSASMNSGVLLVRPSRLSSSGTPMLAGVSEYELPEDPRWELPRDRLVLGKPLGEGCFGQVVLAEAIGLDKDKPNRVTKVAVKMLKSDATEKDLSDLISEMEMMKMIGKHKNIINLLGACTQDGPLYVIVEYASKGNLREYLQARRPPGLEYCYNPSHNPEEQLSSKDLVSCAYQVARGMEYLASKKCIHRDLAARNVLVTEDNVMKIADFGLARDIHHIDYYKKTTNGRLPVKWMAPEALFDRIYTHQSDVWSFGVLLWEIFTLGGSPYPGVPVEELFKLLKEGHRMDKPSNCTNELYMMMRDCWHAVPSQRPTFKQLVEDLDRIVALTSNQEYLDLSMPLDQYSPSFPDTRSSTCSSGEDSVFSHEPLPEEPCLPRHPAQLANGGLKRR
Chain of Fes (P07332 whole entry, looked up): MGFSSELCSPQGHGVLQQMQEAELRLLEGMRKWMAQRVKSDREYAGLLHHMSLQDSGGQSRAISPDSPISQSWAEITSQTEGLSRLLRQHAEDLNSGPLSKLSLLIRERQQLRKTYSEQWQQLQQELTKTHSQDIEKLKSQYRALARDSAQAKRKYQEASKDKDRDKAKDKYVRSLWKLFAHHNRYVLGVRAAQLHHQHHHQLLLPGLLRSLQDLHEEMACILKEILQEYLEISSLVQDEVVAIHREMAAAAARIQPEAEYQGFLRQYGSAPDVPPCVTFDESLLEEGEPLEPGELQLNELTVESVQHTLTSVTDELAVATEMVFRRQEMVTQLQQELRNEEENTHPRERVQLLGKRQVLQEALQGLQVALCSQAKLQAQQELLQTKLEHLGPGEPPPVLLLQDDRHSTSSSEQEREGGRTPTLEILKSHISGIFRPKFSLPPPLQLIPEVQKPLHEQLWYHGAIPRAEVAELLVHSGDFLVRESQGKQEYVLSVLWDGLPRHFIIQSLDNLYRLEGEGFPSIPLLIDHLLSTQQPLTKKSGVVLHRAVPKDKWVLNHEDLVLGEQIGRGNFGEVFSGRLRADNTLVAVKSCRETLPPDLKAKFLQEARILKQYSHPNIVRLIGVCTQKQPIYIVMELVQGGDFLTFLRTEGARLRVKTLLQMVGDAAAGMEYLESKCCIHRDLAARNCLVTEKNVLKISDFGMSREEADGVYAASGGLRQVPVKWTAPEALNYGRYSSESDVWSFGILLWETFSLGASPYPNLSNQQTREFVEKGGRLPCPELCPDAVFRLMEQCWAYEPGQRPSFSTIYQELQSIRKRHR
Chain of Fyn (P06241 whole entry, looked up): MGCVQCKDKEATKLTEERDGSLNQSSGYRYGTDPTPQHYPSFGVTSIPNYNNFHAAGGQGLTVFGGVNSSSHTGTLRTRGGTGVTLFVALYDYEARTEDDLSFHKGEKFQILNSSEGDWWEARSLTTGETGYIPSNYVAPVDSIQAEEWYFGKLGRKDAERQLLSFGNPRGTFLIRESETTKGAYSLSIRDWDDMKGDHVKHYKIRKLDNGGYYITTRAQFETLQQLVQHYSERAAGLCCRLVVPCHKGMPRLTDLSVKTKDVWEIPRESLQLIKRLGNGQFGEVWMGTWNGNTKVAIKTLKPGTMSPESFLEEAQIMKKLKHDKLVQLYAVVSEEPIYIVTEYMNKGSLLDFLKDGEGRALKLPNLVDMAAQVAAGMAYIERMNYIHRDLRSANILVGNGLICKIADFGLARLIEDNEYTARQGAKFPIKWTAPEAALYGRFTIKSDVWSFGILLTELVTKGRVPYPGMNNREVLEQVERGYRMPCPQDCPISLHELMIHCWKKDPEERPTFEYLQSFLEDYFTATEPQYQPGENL

| Sequence | SH2 binding enrichment (Grb2 SH2) | SH2 binding enrichment (SHP2-C SH2) | SH2 binding enrichment (c-Src SH2) | phosphorylation enrichment (AncSZ) | phosphorylation enrichment (EPHB1) | phosphorylation enrichment (EPHB2) | phosphorylation enrichment (FGFR1) | phosphorylation enrichment (FGFR3) | phosphorylation enrichment (Fer (mouse)) | phosphorylation enrichment (Fes) | phosphorylation enrichment (Fyn) | phosphorylation enrichment (Hck) | phosphorylation enrichment (Jak2) | phosphorylation enrichment (MERTK) | phosphorylation enrichment (c-Abl (mouse)) | phosphorylation enrichment (c-Src) |
| --- | --- | --- | --- | --- | --- | --- | --- | --- | --- | --- | --- | --- | --- | --- | --- | --- |
| EFISENCGEII [EZH2_Y641_Y641N] | 1.05 | 0.714 | 0.62 | 1.31 | 0.585 | 0.57 | 0.487 | 0.706 | 0.478 | 1.1 | 0.581 | 0.495 | 1.13 | 0.437 | 0.71 | 0.423 |
| CSHMFYGKQCC [ADAMTS16_Y1211_K1209M] | 1.14 | 0.827 | 0.772 | 0.839 | 0.587 | 0.543 | 0.464 | 0.606 | 0.539 | 1.01 | 0.653 | 0.519 | 0.852 | 0.485 | 0.713 | 0.573 |
| VLTSKYCGGGG [HBA1_Y141_R142C] | 0.884 | 0.804 | 0.545 | 0.603 | 0.474 | 0.419 | 0.384 | 0.577 | 0.394 | 0.772 | 0.429 | 0.467 | 0.634 | 0.391 | 0.747 | 0.354 |
| VFPIDYYFPPQ [AR_Y552_L548F] | 1.24 | 1.08 | 1.04 | 5.64 | 3.22 | 3.65 | 13.8 | 12.9 | 0.536 | 0.914 | 0.816 | 0.851 | 6.13 | 2.24 | 0.922 | 1.34 |
| HQPGEYIFHAE [FLT3_Y416] | 0.668 | 0.743 | 0.445 | 1.77 | 0.887 | 1.12 | 0.819 | 1.28 | 0.795 | 1.29 | 0.915 | 1.21 | 1.29 | 0.74 | 1.11 | 0.852 |
| MKKQKYGRIIM [HSD17B4_Y143] | 1.91 | 1.55 | 1.54 | 0.497 | 0.551 | 0.531 | 0.517 | 0.971 | 0.565 | 0.89 | 0.443 | 0.396 | 0.998 | 0.499 | 0.771 | 0.422 |
| VKMLEYLGKDV [CASP5_Y74] | 0.662 | 0.77 | 0.389 | 1.07 | 0.422 | 0.651 | 0.375 | 0.453 | 0.413 | 0.726 | 0.454 | 0.491 | 0.591 | 0.504 | 0.57 | 0.337 |
| KPPFSYNALIR [FOXG1_Y186_M191R] | 1.01 | 0.956 | 0.742 | 0.695 | 0.478 | 0.55 | 0.505 | 0.519 | 0.446 | 0.807 | 0.482 | 0.53 | 0.618 | 0.477 | 0.565 | 0.504 |
| SFHSSYSEIKD [DCLRE1C_Y322] | 0.982 | 4.96 | 22.5 | 0.738 | 0.435 | 0.532 | 0.554 | 0.681 | 0.52 | 0.744 | 0.512 | 0.51 | 0.559 | 0.57 | 0.448 | 0.506 |
| WQQQSYLFSGI [CTNNB1_Y30_D32Y_YF] | 1.02 | 0.882 | 0.641 | 0.977 | 0.461 | 0.57 | 0.473 | 0.57 | 0.398 | 0.928 | 0.454 | 0.44 | 0.972 | 0.414 | 0.765 | 0.467 |
| IKGIRYLHHRG [GUCY2D_Y656] | 1.39 | 0.966 | 1.01 | 0.466 | 0.423 | 0.358 | 0.348 | 0.363 | 0.432 | 0.469 | 0.415 | 0.344 | 0.597 | 0.376 | 0.497 | 0.439 |
| RFLERDIFNRE [HLA-DPB1_Y57_Y57D_YF] | 0.927 | 0.707 | 0.565 | 1.17 | 0.769 | 0.569 | 0.682 | 1.1 | 1.01 | 1.01 | 0.518 | 0.771 | 1.69 | 0.548 | 1.29 | 0.584 |
| SLQAHYDTPRS [DOK7_Y405_R402Q] | 0.916 | 0.636 | 5.05 | 0.513 | 0.435 | 0.479 | 0.352 | 0.38 | 0.593 | 0.539 | 0.366 | 0.37 | 0.53 | 0.529 | 3.19 | 0.368 |
| EKLQKYFRQNP [EHHADH_Y682_YF] | 0.871 | 0.761 | 0.355 | 0.802 | 0.375 | 0.35 | 0.358 | 0.472 | 0.365 | 0.742 | 0.431 | 0.351 | 0.549 | 0.354 | 0.942 | 0.408 |
| YCRHNYGVVES [HLA-DRB1_Y112] | 1.2 | 0.927 | 1.64 | 0.557 | 1.52 | 2.87 | 0.568 | 0.527 | 0.41 | 0.798 | 0.385 | 0.458 | 0.681 | 0.592 | 0.675 | 0.484 |

Second part, led by results:

| SH2 binding enrichment (Grb2 SH2) | SH2 binding enrichment (SHP2-C SH2) | SH2 binding enrichment (c-Src SH2) | Sequence | phosphorylation enrichment (AncSZ) | phosphorylation enrichment (EPHB1) | phosphorylation enrichment (EPHB2) | phosphorylation enrichment (FGFR1) | phosphorylation enrichment (FGFR3) | phosphorylation enrichment (Fer (mouse)) | phosphorylation enrichment (Fes) | phosphorylation enrichment (Fyn) | phosphorylation enrichment (Hck) | phosphorylation enrichment (Jak2) | phosphorylation enrichment (MERTK) | phosphorylation enrichment (c-Abl (mouse)) | phosphorylation enrichment (c-Src) |
| --- | --- | --- | --- | --- | --- | --- | --- | --- | --- | --- | --- | --- | --- | --- | --- | --- |
| 0.883 | 0.833 | 3.89 | VEDHYYEGGIG [TKT_Y564] | 1.1 | 0.581 | 0.65 | 1.59 | 1.73 | 0.688 | 1.11 | 0.559 | 0.636 | 1.05 | 0.524 | 0.837 | 0.628 |
| 0.701 | 0.429 | 0.446 | RFWPRYVKVGS [NOG_Y172] | 1.36 | 0.532 | 0.478 | 0.487 | 0.751 | 0.726 | 0.624 | 0.68 | 0.726 | 0.622 | 0.46 | 0.691 | 0.535 |
| 0.958 | 0.59 | 1.31 | QQLDKYQELLD [LMNA_Y359_E358K] | 1.26 | 0.889 | 0.806 | 0.715 | 0.783 | 0.452 | 0.995 | 0.485 | 0.441 | 1.33 | 0.446 | 0.789 | 0.453 |
| 1.16 | 1.17 | 0.806 | AMIADYMFWLG [SPATA16_Y290] | 2.24 | 7.43 | 15.2 | 12.2 | 10.8 | 2.01 | 1.31 | 0.727 | 1.49 | 3.71 | 2.52 | 1.24 | 1.3 |
| 0.791 | 0.65 | 0.442 | TGNPAYRSFSN [IL4R_Y497_A492T] | 0.595 | 0.328 | 0.328 | 0.406 | 0.457 | 0.326 | 0.584 | 0.369 | 0.404 | 0.422 | 0.326 | 0.441 | 0.373 |
| 0.954 | 0.512 | 0.446 | ASTDYNKRGDF [PDHA1_Y243_Y243N] | 0.502 | 0.348 | 0.474 | 0.421 | 0.402 | 0.378 | 0.599 | 0.456 | 0.332 | 0.468 | 0.405 | 0.469 | 0.47 |
| 1.06 | 1.21 | 0.657 | DEEPPYRGPFC [SASH1_Y551] | 0.863 | 0.509 | 0.396 | 0.525 | 0.656 | 0.434 | 0.895 | 0.437 | 0.389 | 0.697 | 0.332 | 0.673 | 0.493 |
| 0.883 | 0.917 | 0.565 | DRLASNLDKVR [KRT10_Y160_Y160N] | 0.556 | 0.326 | 0.307 | 0.491 | 0.348 | 0.339 | 0.547 | 0.382 | 0.33 | 0.488 | 0.394 | 0.481 | 0.391 |
| 1.46 | 1.32 | 0.759 | DFKIIYIAPMR [SNRNP200_Y540] | 1.21 | 0.586 | 0.486 | 0.449 | 0.616 | 0.447 | 1.22 | 0.522 | 0.556 | 1.18 | 0.437 | 4.59 | 0.572 |
| 0.646 | 0.521 | 0.583 | MWGSDYVQLSR [MAP3K4_Y582] | 1.67 | 9.41 | 6.29 | 7.1 | 4.02 | 0.383 | 0.765 | 0.685 | 1.12 | 5.71 | 0.561 | 0.53 | 1.08 |
| 0.688 | 0.74 | 0.532 | TTIVSYRASQP [MKI67_Y1737_K1734I] | 0.591 | 0.454 | 0.305 | 0.441 | 0.477 | 0.457 | 0.663 | 0.481 | 0.481 | 0.6 | 0.438 | 0.654 | 0.539 |
| 0.856 | 0.569 | 0.74 | AFEQQYSPIPK [NOX1_Y373_R378K] | 0.772 | 0.766 | 0.411 | 0.744 | 0.575 | 0.435 | 0.741 | 0.514 | 3.14 | 0.534 | 0.874 | 0.612 | 0.802 |
| 0.971 | 0.811 | 0.523 | DVVKDCAFVHM [RBM14_Y114_Y114C] | 0.899 | 0.582 | 0.535 | 0.573 | 0.623 | 0.498 | 0.993 | 0.488 | 0.486 | 0.71 | 0.401 | 0.645 | 0.384 |
| 0.733 | 0.473 | 0.429 | LSVEIHDRREY [ITGB7_Y753_Y753H] | 1.09 | 0.55 | 0.54 | 0.414 | 0.633 | 0.473 | 1.08 | 0.336 | 0.463 | 1.12 | 0.336 | 0.823 | 0.438 |
| 1.46 | 1.34 | 1.54 | FSCLPCGRLAY [SLC52A2_Y305_Y305C] | 0.832 | 0.431 | 0.485 | 0.481 | 0.54 | 0.351 | 0.772 | 0.425 | 0.431 | 0.724 | 0.688 | 0.584 | 0.45 |
| 0.758 | 1.08 | 2.03 | LNAGAYSKVVE [PPT1_Y172_Q177E] | 0.447 | 0.431 | 0.416 | 0.436 | 0.378 | 0.551 | 0.664 | 0.306 | 0.411 | 0.541 | 0.448 | 0.46 | 0.523 |
| 1.82 | 1.5 | 0.935 | DVFLKYLNFAT [PDE6B_Y212] | 1.23 | 0.855 | 0.44 | 0.535 | 0.826 | 0.509 | 1.29 | 0.557 | 0.544 | 1.56 | 0.647 | 1.46 | 0.597 |
| 0.974 | 0.736 | 1.03 | YPLELYERVRI [PRKCG_Y312_M317I] | 1.08 | 1.9 | 1.23 | 0.459 | 0.56 | 4.38 | 1.01 | 0.584 | 1.74 | 0.895 | 0.437 | 0.58 | 0.493 |

Source: the supplement of paper PMC10065799, “High-throughput profiling of sequence recognition by tyrosine kinases and SH2 domains using bacterial peptide display” (eLife, 2023)
